The test system of series [1] is HeLa Kyoto. In words: thermal stability score vs G1/S (z-score of summed log2 fold changes over temperatures); higher = more thermally stable than in G1/S.
Series [2] relates to HeLa Kyoto. Kind of series: solubility change mitosis vs G1/S (difference of NP-40 vs SDS log2 ratios) (log2 ratio difference); higher = more soluble in mitosis.
The subject of series [3] is HeLa Kyoto. Kind of series: melting temperature (median over replicates), in situ; higher = more thermally stable.
Series [4] deals with HeLa Kyoto. Kind of series: solubility in G1/S (NP-40 vs SDS abundance) (log2 ratio); higher = more soluble. The note with it: cell cycle stage: G1/S.
The mark [5] stands for this setting: cell cycle stage: early G1 (4.5 h after nocodazole release).
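For melting temperature (median over replicates), in situ in this document: HeLa Kyoto cells synchronized by double thymidine or nocodazole block, proteins quantified by TMT10plex mass spectrometry, three independent biological replicates.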
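For solubility change mitosis vs G1/S (difference of NP-40 vs SDS log2 ratios) in this document: synchronized HeLa Kyoto cells (double thymidine block for G1/S, nocodazole release for mitosis), protein amounts in NP-40 versus SDS lysates quantified by mass spectrometry, three biological replicates.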
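For solubility in G1/S (NP-40 vs SDS abundance) in this document: HeLa Kyoto cells arrested at G1/S by double thymidine block, proteins quantified by TMT10plex mass spectrometry in mild NP-40 versus SDS extracts, three biological replicates.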
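For thermal stability score vs G1/S (z-score of summed log2 fold changes over temperatures) in this document: synchronized HeLa Kyoto cells, proteins quantified by TMT10plex mass spectrometry, three biological replicates, mitosis taken 0.5 h after nocodazole release, G1/S directly after double thymidine block.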

In the case of “MELQPPEASIAVVSIPRQLPGSHSEAGVQGLSAGDDSELGSHCVAQTGLELLASGDPLPSASQNAEMIETGSDCVTQAGLQLLASSDPPALASKNAEVTGTMSQDTEVDMKEVELNELEPEKQPMNAASGAAMSLAGAEKNGLVKIKVAEDEAEAAAAAKFTGLSKEELLKVAGSPGWVRTRWALLLLFWLGWLGMLAGAVVIIVRAPRCRELPAQKWWHTGALYRIGDLQAFQGHGAGNLAGLKGRLDYLSSLKVKGLVLGPIHKNQKDDVAQTDLLQIDPNFGSKEDFDSLLQSAKKKSIRVILDLTPNYRGENSWFSTQVDTVATKVKDALEFWLQAGVDGFQVRDIENLKDASSFLAEWQNITKGFSEDRLLIAGTNSSDLQQILSLLESNKDLLLTSSYLSDSGSTGEHTKSLVTQYLNATGNRWCSWSLSQARLLTSFLPAQLLRLYQLMLFTLPGTPVFSYGDEIGLDAAALPGQPMEAPVMLWDESSFPDIPGAVSANMTVKGQSEDPGSLLSLFRRLSDQRSKERSLLHGDFHAFSAGPGLFSYIRHWDQNERFLVVLNFGDVGLSAGLQASDLPASASLPAKADLLLSTQPGREEGSPLELERLKLEPHEGLLLRFPYAA [SLC3A2]”, the thermal stability score in the series on HeLa Kyoto [1] (setting [5]) was -2.05; with HeLa Kyoto [1] (cell cycle stage: mitosis) it was -1.32. In addition, in the series on HeLa Kyoto [2], the “solubility change mitosis (log2)” value is -0.0187. Besides, the melting temperature was determined as 59.8 °C in the series on HeLa Kyoto [3] (cell cycle stage: G1/S) and 60.5 °C in the series on HeLa Kyoto [3] (cell cycle stage: mitosis). Besides, in the series with HeLa Kyoto [4], the “solubility in G1/S (log2)” value amounted to 0.345.
With “MAASEAAVVSSPSLKTDTSPVLETAGTVAAMAATPSARAAAAVVAAAARTGSEARVSKAALATKLLSLSGVFAVHKPKGPTSAELLNRLKEKLLAEAGMPSPEWTKRKKQTLKIGHGGTLDSAARGVLVVGIGSGTKMLTSMLSGSKRYTAIGELGKATDTLDSTGRVTEEKPYDKITQEDIEGILQKFTGNIMQVPPLYSALKKDGQRLSTLMKRGEVVEAKPARPVTVYSISLQKFQPPFFTLDVECGGGFYIRSLVSDIGKELSSCANVLELTRTKQGPFTLEEHALPEDKWTIDDIAQSLEHCSSLFPAELALKKSKPESNEQVLSCEYITLNEPKREDDVIKTC [TRUB1]”, the thermal stability score in the series with HeLa Kyoto [1] (setting [5]) is 1.48; in the series with HeLa Kyoto [1] (cell cycle stage: mitosis) it was 1.46. Further, the “solubility change mitosis (log2)” value in the series with HeLa Kyoto [2] is -0.0378. Besides, the melting temperature in the series on HeLa Kyoto [3] (cell cycle stage: G1/S) and in the series with HeLa Kyoto [3] (cell cycle stage: mitosis) was 50.2 °C in each case. Also, in the series with HeLa Kyoto [4], the “solubility in G1/S (log2)” value came to 0.549.
Take “MGRRSSDTEEESRSKRKKKHRRRSSSSSSSDSRTYSRKKGGRKSRSKSRSWSRDLQPRSHSYDRRRRHRSSSSSSYGSRRKRSRSRSRGRGKSYRVQRSRSKSRTRRSRSRPRLRSHSRSSERSSHRRTRSRSRDRERRKGRDKEKREKEKDKGKDKELHNIKRGESGNIKAGLEHLPPAEQAKARLQLVLEAAAKADEALKAKERNEEEAKRRKEEDQATLVEQVKRVKEIEAIESDSFVQQTFRSSKEVKKSVEPSEVKQATSTSGPASAVADPPSTEKEIDPTSIPTAIKYQDDNSLAHPNLFIEKADAEEKWFKRLIALRQERLMGSPVA [RSRC1]”: the thermal stability score is -1.05 in the series on HeLa Kyoto [1] (setting [5]) and -4.78 with HeLa Kyoto [1] (cell cycle stage: mitosis). Further, in the series with HeLa Kyoto [2], the “solubility change mitosis (log2)” value came to 0.261. Besides, the melting temperature with HeLa Kyoto [3] (cell cycle stage: G1/S) is 51.5 °C; in the series on HeLa Kyoto [3] (cell cycle stage: mitosis), 50.4 °C. In the series with HeLa Kyoto [4], the “solubility in G1/S (log2)” value is -0.945.
As to “MAVYVGMLRLGRLCAGSSGVLGARAALSRSWQEARLQGVRFLSSREVDRMVSTPIGGLSYVQGCTKKHLNSKTVGQCLETTAQRVPEREALVVLHEDVRLTFAQLKEEVDKAASGLLSIGLCKGDRLGMWGPNSYAWVLMQLATAQAGIILVSVNPAYQAMELEYVLKKVGCKALVFPKQFKTQQYYNVLKQICPEVENAQPGALKSQRLPDLTTVISVDAPLPGTLLLDEVVAAGSTRQHLDQLQYNQQFLSCHDPINIQFTSGTTGSPKGATLSHYNIVNNSNILGERLKLHEKTPEQLRMILPNPLYHCLGSVAGTMMCLMYGATLILASPIFNGKKALEAISRERGTFLYGTPTMFVDILNQPDFSSYDISTMCGGVIAGSPAPPELIRAIINKINMKDLVVAYGTTENSPVTFAHFPEDTVEQKAESVGRIMPHTEARIMNMEAGTLAKLNTPGELCIRGYCVMLGYWGEPQKTEEAVDQDKWYWTGDVATMNEQGFCKIVGRSKDMIIRGGENIYPAELEDFFHTHPKVQEVQVVGVKDDRMGEEICACIRLKDGEETTVEEIKAFCKGKISHFKIPKYIVFVTNYPLTISGKIQKFKLREQMERHLNL [ACSF2]”, the thermal stability score was found to be 0.261 in the series on HeLa Kyoto [1] (setting [5]) and 0.668 in the series on HeLa Kyoto [1] (cell cycle stage: mitosis). For the same sequence, the “solubility change mitosis (log2)” value with HeLa Kyoto [2] is -0.0628. Besides, the melting temperature with HeLa Kyoto [3] (cell cycle stage: G1/S) stood at 49.4 °C; with HeLa Kyoto [3] (cell cycle stage: mitosis), 49.8 °C. For the same sequence, in the series on HeLa Kyoto [4], the “solubility in G1/S (log2)” value worked out at 0.27.
In the case of “MASVVLPSGSQCAAAAAAAAPPGLRLRLLLLLFSAAALIPTGDGQNLFTKDVTVIEGEVATISCQVNKSDDSVIQLLNPNRQTIYFRDFRPLKDSRFQLLNFSSSELKVSLTNVSISDEGRYFCQLYTDPPQESYTTITVLVPPRNLMIDIQKDTAVEGEEIEVNCTAMASKPATTIRWFKGNTELKGKSEVEEWSDMYTVTSQLMLKVHKEDDGVPVICQVEHPAVTGNLQTQRYLEVQYKPQVHIQMTYPLQGLTREGDALELTCEAIGKPQPVMVTWVRVDDEMPQHAVLSGPNLFINNLNKTDNGTYRCEASNIVGKAHSDYMLYVYDPPTTIPPPTTTTTTTTTTTTTILTIITDSRAGEEGSIRAVDHAVIGGVVAVVVFAMLCLLIILGRYFARHKGTYFTHEAKGADDAADADTAIINAEGGQNNSEEKKEYFI [CADM1]”, the thermal stability score in the series on HeLa Kyoto [1] (setting [5]) is 0.625; in the series with HeLa Kyoto [1] (cell cycle stage: mitosis), 0.622. In the series with HeLa Kyoto [2], the “solubility change mitosis (log2)” value was -0.0334. For the same sequence, the melting temperature turned out to be 61.3 °C in the series on HeLa Kyoto [3] (cell cycle stage: G1/S) and 58.9 °C in the series with HeLa Kyoto [3] (cell cycle stage: mitosis). Further, the “solubility in G1/S (log2)” value in the series on HeLa Kyoto [4] was -0.145.
Take “MATCIWLRSCGARRLGSTFPGCRLRPRAGGLVPASGPAPGPAQLRCYAGRLAGLSAALLRTDSFVGGRWLPAAATFPVQDPASGAALGMVADCGVREARAAVRAAYEAFCRWREVSAKERSSLLRKWYNLMIQNKDDLARIITAESGKPLKEAHGEILYSAFFLEWFSEEARRVYGDIIHTPAKDRRALVLKQPIGVAAVITPWNFPSAMITRKVGAALAAGCTVVVKPAEDTPFSALALAELASQAGIPSGVYNVIPCSRKNAKEVGEAICTDPLVSKISFTGSTTTGKILLHHAANSVKRVSMELGGLAPFIVFDSANVDQAVAGAMASKFRNTGQTCVCSNQFLVQRGIHDAFVKAFAEAMKKNLRVGNGFEEGTTQGPLINEKAVEKVEKQVNDAVSKGATVVTGGKRHQLGKNFFEPTLLCNVTQDMLCTHEETFGPLAPVIKFDTEEEAIAIANAADVGLAGYFYSQDPAQIWRVAEQLEVGMVGVNEGLISSVECPFGGVKQSGLGREGSKYGIDEYLELKYVCYGGL [ALDH5A1]”: the results for the thermal stability score with HeLa Kyoto [1] (setting [5]) and in the series with HeLa Kyoto [1] (cell cycle stage: mitosis) were 1.08 and 0.0757, respectively. Also, in the series on HeLa Kyoto [2], the “solubility change mitosis (log2)” value is -0.0409. Further, the melting temperature with HeLa Kyoto [3] (cell cycle stage: G1/S) came out at 56.1 °C; in the series on HeLa Kyoto [3] (cell cycle stage: mitosis), 54.8 °C. In addition, the “solubility in G1/S (log2)” value in the series on HeLa Kyoto [4] came out at 0.125.

The values are drawn from the supplement of paper PMC5998384.
